Source: patent US20190322747A1 (ZHEJIANG TERUISI PHARMACEUTICAL, published 2019)

What was measured:
Assay in all cases: ELISA, antigen coated at 5 µg/mL, anti-HA detection, absorbance at 405 nm
[1] = target: T1, ICOS (human) antigen protein, coated (human, UniProt Q9Y6W8 21-140, limits assumed)
T1 sequence (looked up): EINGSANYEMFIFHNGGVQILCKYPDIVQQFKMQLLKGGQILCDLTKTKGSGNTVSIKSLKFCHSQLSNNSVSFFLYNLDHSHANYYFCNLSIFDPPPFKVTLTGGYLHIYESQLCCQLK
Procedure: (§1) (2) The antigen proteins PD-1 (human), PD-1 (monkey), PD-1 (mice), ICOS(human), CTLA-4 (human), CD28 (human), IgG1 (human) were coated overnight at 4° C. with 0.5 μg per well (5 μg/mL, 100 μL), and IgG1 was coated as a control.
(§2) (3) The plates were washed by PBST (×5) next day, and 200 μL 1% BSA was added to block in RT for 2 hours;

[2] = target: CD28 (human) antigen protein, coated (human, UniProt P10747 19-152)
Procedure: as §1, §2

[3] = target: T2, PD-1 (mice) antigen protein, coated (mouse, UniProt Q02242 25-167, limits assumed)
T2 construct: also called mouse PD-1
T2 sequence (looked up): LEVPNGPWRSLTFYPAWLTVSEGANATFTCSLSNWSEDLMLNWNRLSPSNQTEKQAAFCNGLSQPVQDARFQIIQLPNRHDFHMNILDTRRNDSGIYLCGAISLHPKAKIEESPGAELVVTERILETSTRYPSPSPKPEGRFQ
Procedure: as §1, §2

[4] = target: T3, CTLA-4 (human) antigen protein, coated (human, UniProt P16410 36-161, limits assumed)
T3 sequence (looked up): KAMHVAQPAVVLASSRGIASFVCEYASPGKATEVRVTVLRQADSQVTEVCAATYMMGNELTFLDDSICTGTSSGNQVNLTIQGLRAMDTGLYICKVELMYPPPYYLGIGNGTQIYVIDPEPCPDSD
Procedure: as §1, §2

Measured: binding result

CD28 (human) antigen protein, coated, sequence (P10747 19-152 limits assumed): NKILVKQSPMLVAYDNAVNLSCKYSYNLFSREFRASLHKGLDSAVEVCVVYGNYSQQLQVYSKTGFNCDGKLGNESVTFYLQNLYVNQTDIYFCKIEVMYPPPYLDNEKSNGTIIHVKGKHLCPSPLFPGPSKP

B1: humanized PD-1 nanobody (amino acid sequence SEQ ID NO.: 14) (VHH)
VHH: QVQLQESGGGLVQPGGSLRLSCAASGSTYLRFSMGWFRQVPGKGLEGVAAIGGDGRTSYADSVKGRFTISKDNSKNTLYLDMNSLRAEDTAVYYCAAAVLLDGSFSLLAPLVPYKYDYWGQGTLVTVSS
modifications: biotinylated (Example 9, sites not stated)
notes: also called Nanobody after humanization; humanized nanobody; not shown: HA and His tags from the pMECS vector
no binding (tested: 10 µg/mL): [1] | [2] | [3] | [4]
